# Experimental data as given in patent US20140271653A1 (Regeneron, published 2014).
# Substitutions are numbered along the chain they refer to. Like-named read-outs stand apart in the source and are kept apart here.
# B1: H1H3597P (antibody, V domains shown)
# VH: EVQLVESGGGLVQPGGSLRLSCGASGFTFRDFDMNWVRQAPGRGLEWVSGIGGSGGNTYYADSVKGRFTISRDNSKNTLFLQMSSLRAEDTAVYYCVKDPYGDYRNYYGMDVWGQGTTVTVSS
# VL: DIVMTQSPLSLPVTPGEPASISCRSSQSLLHSNGYNYLDWYLQKPGQSPQLLIYLGSNRASGVPDRFRGSGSDKDFTLKISRVGAEDVGVYYCMQALQTITFGQGTRLEIK
# B2: H1H3598P (antibody, V domains shown)
# VH: EVQLVESGGGLGQPGGSLRLSCGASGFMFRNYAMSWVRQAPGKGLEWVSTILDSGDNTYYADSVKGRFTISRDNSKNTLYLQMNSLRAEDTAVYYCAKDPYGDYRDYYGMDVWGQGTTVTVSS
# VL: B1 VL with D73G, G84E, V90L
# B3: H1H3567P (antibody, V domains shown)
# VH: QVQLVQSGAEVKKPGASVKVSCKASGYTLTGYYLHWVRQAPGQGLEWMGWINPTSGGTNYAQKFQGRVTMTRDTSISAAFMELSRLRSDDTAVYHCAREFWPHGMDVWGQGTTVTVSS
# VL: AIQMTQSPSSLSASVGDRVTITCRASQAIRNDLGWYQQKPGKAPKLLIYASSSLQSGVPSRFSGSGSGTDFTLTISSLQPEDFATYYCLADYKYTWTFGQGTKVEIK
# B4: H1H3583P (antibody, V domains shown)
# VH: QVQLVQSGAEVKKSGSSVKVSCKASGGTFSSYAISWVRQAPGQGLEWMGGIIPIFGTGNYAQKFQGRVTITTDESTSTAYMELSSLRSEDTAVYYCARDSSSSPRYYGMDVWGHGTTVTVSS
# VL: EIVLTQSPATLSLSPGERATLSCRASQSVTSYLAWYQQKPGQAPRLLIYDVSKRATGIPARFSGSGSGTDFTLTISSLEPEDFATYYCQQRSNWPPTFGQGTRLEIK
# B5: H1H3603P (antibody, V domains shown)
# VH: QVQLQESGPGLVKPSETLSLTCTVSGGSISGYYWTWIRQPPGKGLEWIGYIYYSGATNYNPSLKSRVTISLDTSKNQFSLKLSSVTAADTAVYYCARDGNYDILTGYYNYHYYGMDVWGQGTTVTVSS
# VL: DIQMTQSPSSLSASVGDRVTITCRASQDIGNYLAWFQQKPGKAPESLIYAASILQSGVPSKFSGSGSGTDFTLTISSLQPEDFATYYCQQYNTFPWTFGQGTKVEIK
# B6: H1M3621N (antibody, V domains shown)
# VH: QVQLEQSGAEVKKPGASVRISCKASGDTFTGYYINWVRQAPGQGLEWMGWINTNSGGTYFSQKFQVRVILTRDTSINTAYMELSRLRSDDTAVYYCARMFYDILTNSDIFDIWGQGTMVTVSS
# VL: DIQMTQSPSSLSASVGDRVTITCRASQDIRNDLGWYQQKPGKAPKCLIYGASSLQSGVPSRFSGSGSGTEFTLTISSLQPEDFATYYCLQHKNYMYTFGQGTKLEIK
# B7: H1H3565P (antibody, V domains shown)
# VH: QVQLVESGGGVVQPGRSLRLSCAASGFTFNSYGMHWVRQAPGKGLEWVTFIWSDGSNKYYLDSVKGRFTISRDNSKNTLYLQMNSLRAEDTAVYYCARSGLASYYYYGMDVWGQGTTVTVSS
# VL: B6 VL with D28G, C46R, Y87S, K92N, N93S, M95P, Y96W, L104V
# B8: H1H3566P (antibody, V domains shown)
# VH: B7 VH with N30S, T49V, I51L, S53Y, Y59H, L61A, G108S
# VL: B6 VL with D28G, G34A, C46R, Q55H, Y87S, K92N, N93S, M95P, Y96W, L104V
# B9: H1H3581P (antibody, V domains shown)
# VH: EVQLVESGGGLVHPGGSLRLSCEASGFTLSSHVMSWVRQVPGKGLEWVSRISGPGGSTKYADSVQGRFTTSRDNSKNTLYLQMNSLIAEDSAAYYCAKGGGYSGYDWDFYYGMDVWGQGTTVTVSS
# VL: DIQMTQSPSSVSASVGDRVTITCRASQGISSWLAWYQQKPGKAPKLLIYAASSLQSGVPSRFSGSGSGTDFTLTISSLQPEDFATYYCQQTNSFPLTFGGGTKVDIK
# B10: H1H3607P (antibody, V domains shown)
# VH: QVQLVESGGGLVKPGGSLRLSCAASGFTFSDYYMTWIRQVPGKGLEWVSYISSTGNNRYYGDSVKGRFAISRDNAKNLLFLQMNSLKAEDTAVYYCARENNWNPYFFYYGMDVWGQGTTVTVSS
# VL: B9 VL with S31I, Y49S, S53T, T91A, G100Q, D105E
# B11: H1H3592P (antibody, V domains shown)
# VH: EVQLVESGGDLVQPGRSLRLSCVASGFTFDDYAMHWVRQAPGKGLEWVSGVSWSGSTVGYADSVKGRFTVSRDNAQKSLYLQMNSLRAEDTALYYCVKDAYKWNYYYYGLDVWGQGTTVTVSS
# VL: EIVMTQSPATLSVSPGERATLSCRASQTILSNLAWYLQKPGQAPRLLIYGASTRATGLPARFSGSGSGTEFTLTISSLQSEDFAVYYCQQYNNWPLTFGGGTKVEIK
# B12: H1H3592P2 (antibody, V domains shown)
# VH: B11 VH with W103Y
# VL: B11 VL
# B13: H1H3604P (antibody, V domains shown)
# VH: QVQLVESGGGLVKPGGSLRLSCAASGFTFSDYYMTWIRQAPGRGLEWVSYISDTGSHLYYADSVRGRFTISRDNAKNSLYLQMNNLRAEDTAVYYCARDQDGEMELRFFDYWGQGTLVTVSS
# VL: EIVLTQSPATLSLSPGERGTLSCRASQSINNYLAWYQQKPGQAPRLLIFDASNRATGIPARFSGSGSGTDFTLTISRIEPEDFAVYYCQQRTNWPLTFGGGTKVEIK
# B14: H1H3564P (antibody, V domains shown)
# VH: QVQLVQSGAEVKKPGSSVKVSCKASGGTLSNNAFSWVRQAPGQGLEWLGGFNPIFDTANYAQKFQGRITITLDASTGTVYMELSSLRSEDTGVYYCAGTGAHFEFWGQGTLVTVSS
# VL: DIQMTQSPSSLSASVGDRVTITCRTSQSISTYLNWYQQKPGKAPKFLIYAASTLQSGVPSRFSGSGSRTDFTLTISSLQPEDFATYYCQQSVSVPYTFGQGTKLEIK
# B15: H1H3608P2 (antibody, V domains shown)
# VH: QVQLVESGGGVVQPGRSLRLSCAASGFTFSSYGMHWVRQAPGKGLEWVAVIYYEGSNDYYVDSVKGRFTISRDNSKNTLYLQMNSLRAEDTAVYYCARRDWNSFDYWGQGTLVTVSS
# VL: DIVMTQSPLSLSVTPGEPASISCRSSQNLLNRNGFNYLDWYLQKPGQSPQLLIYLGSNRASGVPDRFSGSGSGTDFTLKISRVEVEDVGVYYCMQAIQTPYTFGQGTKLEIK
# B16: H1H3589P (antibody, V domains shown)
# VH: EVQLVESGGGLVQPGGSLRLSCEASGFTFSTYWMSWVRQAPGKGLEWVANIKQDGSVKYFVDSVKGRFTVSRDNAKNSLYLQMNSLRAEDTALYHCARERHRGSYYGYYDGMDVWGQGTTVTVSS
# VL: DIQMTQSPSSLSASVGDRVTITCRASQNIDIYLNWYQERPGKAPNLLIYAASSLQSGVPSRFSGSGSGTDFTLTISSLQPEDFATYYCQQSYNTPFTFGGGTKVEIK
# B17: H1H3591P (antibody, V domains shown)
# VH: EVQLVESGGGLVQPGRSLRLSCAASGFTFDDYAMHWVRQTPGKGLEWISGISWSSGTIVYADSVKGRFTISRDNAKNSLYLQMNSLRGEDTALYHCAKDGYRWKSYSYGLDVWGQGTTVTVSS
# VL: EIVMTQSPATLSLSPGERATLSCRPSQSVINNLAWYQQKPGQAPRLLIFGASSRATGIPARFSGSGSGTEFTLTISSLQSEDFALYYCQQYNNWPLTFGGGTKVEIK
# B18: H1H3605P (antibody, V domains shown)
# VH: QVQLQESGPGLVKPSETLSLTCTVSGGFISNYYWSWIRQPPGKGLEWIGYIYYSGSTKYNPSLKSRVTISVDTSKNQFSLKLSSVSAADTAVYYCARDGVVAAAGPPYHYHYGLDVWGQGTTVTVSS
# VL: DIVMTQSPDSLAVSLGERATINCKSSQNLLYTSSNKNSLAWYQQKPGQPPELLIYWASTRESGVPDRFSGSGSGTDFILTISSLQAEDVAVYYCQQYYSSPWTFGQGTKVEIK
# Experiments:
# RSV-F.mmh [1] = biological target: T1, RSV-F.mmh (Respiratory Syncytial Virus); assay: SPR (Biacore), mAb captured via Fc, soluble RSV-F.mmh injected, 25 C
# T1 construct: also called recombinant RSV-F; soluble monomeric RSV-F
# [2] = biological target: RSV-F of RSV subtype A strain A2 (1540) (respiratory syncytial virus subtype A, …, UniProt P03420 26-574); assay: cell-based or functional assay
# RSV-F.mmh [3] = biological target: T1, RSV-F.mmh; assay: SPR (Biacore), mAb captured via Fc, soluble RSV-F.mmh injected, 25 C; remark: listed apart in the source
# Method: Measurements were conducted on a Biacore 4000 or T-200 instrument. […] All Biacore binding studies were performed in HBST running buffer (0.01 M HEPES pH 7.4, 0.15 M NaCl, 3 mM EDTA, 0.005% v/v surfactant P20). Different concentrations of RSV-F.mmh prepared in HBST running buffer were injected over the anti-RSV-F monoclonal antibody captured surface at a flow rate of 30 μl/min (Biacore 4000) or at a flow rate of 50 μl/min (Biacore T-200) and the association of RSV-F.mmh to captured monoclonal antibody was monitored for 6 min or 3 min respectively. The dissociation of RSV-F.mmh from the monoclonal antibody in HBST running buffer was monitored for 8-10 min at 25° C. Kinetic association (kₐ) and dissociation (kd) rate constants were determined by processing and fitting the data to a 1:1 binding model using Scrubber 2.0 curve fitting software. Binding dissociation equilibrium constants (KD) and dissociative half-lives (t½) were calculated from the kinetic rate constants as: KD (M)=kd/kₐ; and t_{1/2} (min)=(ln 2/(60*kd).
Binder,"IC50 [pM] for RSV A2 Neutralization, Trial 1 [2] [pM]",Kd (RSV-F.mmh [1]) [nM],koff (RSV-F.mmh [1]) [s⁻¹],kon (RSV-F.mmh [1]) [M⁻¹ s⁻¹],t½ (RSV-F.mmh [1]) [h],other results
B1,> 10000,–,–,–,–,binding result (RSV-F.mmh [1]): no binding
B2,> 10000,–,–,–,–,binding result (RSV-F.mmh [1]): no binding
B3,–,43.4,0.00263,60500,0.0667,"IC50 [pM] for RSV A2 Neutralization, Trial 4 [2]: 257 pM; IC50 [pM] for RSV A2 Neutralization, Trial 6 [2]: 390 pM"
B4,–,34.4,0.00308,89400,0.0667,"IC50 [pM] for RSV A2 Neutralization, Trial 5 [2]: 50 pM"
B5,> 10000,41,0.000123,3000,1.57,–
B6,582,–,–,–,–,"Kd (RSV-F.mmh [3]): 1.01 nM; koff (RSV-F.mmh [3]): 0.000208 s⁻¹; kon (RSV-F.mmh [3]): 205000 M⁻¹ s⁻¹; t½ (RSV-F.mmh [3]): 0.933 h; IC50 [pM] for RSV A2 Neutralization, Trial 2 [2]: 180 pM"
B7,> 10000,3.01,5.8e-05,19300,3.32,–
B8,> 10000,2.06,4.2e-05,20400,4.58,–
B9,> 10000,–,–,–,–,binding result (RSV-F.mmh [1]): no binding
B10,> 10000,35,0.000148,4200,1.3,–
B11,–,4.39,0.000466,106000,0.417,"IC50 [pM] for RSV A2 Neutralization, Trial 4 [2]: 6 pM; IC50 [pM] for RSV A2 Neutralization, Trial 6 [2]: 5 pM; IC50 [pM] for RSV A2 Neutralization, Trial 7 [2]: 4 pM"
B12,–,14.7,0.00146,99300,0.133,–
B13,> 10000,30,9.27e-05,3100,2.08,–
B14,> 10000,25,7.78e-05,3100,2.47,–
B15,> 10000,5.35,2.6e-05,4850,7.42,–
B16,–,243,0.00914,37700,0.0167,"IC50 [pM] for RSV A2 Neutralization, Trial 5 [2]: 300 pM"
B17,–,34.2,0.00153,44600,0.133,"IC50 [pM] for RSV A2 Neutralization, Trial 4 [2]: 6 pM; IC50 [pM] for RSV A2 Neutralization, Trial 6 [2]: 8 pM; IC50 [pM] for RSV A2 Neutralization, Trial 7 [2]: 6 pM"
B18,> 10000,59,0.000168,2800,1.15,–
